Substrate in the data set: Nc1nc(N[C@@H]2O[C@H](COP(=O)(O)O)[C@@H](O)[C@H]2O)c(NC=O)c(=O)[nH]1
Put plainly: formamidase assay, fluorescence HPLC of derivatized product (DARoPP / formate). It counts as biochemical, Sinorhizobium meliloti. The conditions noted are these: 50 mM TES pH 7.2, 10% glycerol, 0.25 mM DTT, 1 mM MgCl2, 30 °C, 8 min.

B1: Sm-BrbF (SMc02977) (Sinorhizobium meliloti 1021) (protein)
chain: MSLPKPRWTDNSAALEPVERRDWIAVLPLGAHEQHGPHLPFETDRLIAAGIVERVIAALPQALPVTFLPVEPVGYSIEHMDVSGTRTLAYDEAIERWLGIAESLAGLGVRKFVMLNAHGGNSPLMTIVATEARIRFRMLAVATSWTRFGQPDGWISAKDKAVDIHGGDIETSVMLALHPDKVDMAKARAFPSRQGEFALSFKHLRAYGPHAFGWKMSDLNPDGVAGNAAAATAERGEALLAHAAKGIIELLEDVNAFDAGELD
notes: full ORF in pET-30 Ek/LIC, E. coli BL21; His tag cleaved with enterokinase, untagged
On to B1, for which the Km came out at 152.44 ± 33.59 µM.

The record behind these values is publication PMC9478397.
